# From publication doi:10.1101/2023.12.20.572361
# B1: dystroglycan (mDag1): T315A/T317A (protein)
# parent chain: MSVDNWLLHPLWGQTFLLLLSVAVAQAHWPSEPSEAVRDWKNQLEASMHSVLSDFQEAVPTVVGIPDGTAVVGRSFRVSIPTDLIASSGEIIKVSAAGKEALPSWLHWDPHSHILEGLPLDTDKGVHYISVSAARLGANGSHVPQTSSVFSIEVYPEDHNEPQSVRAASSDPGEVVPSACAADEPVTVLTVILDADLTKMTPKQRIDLLNRMQSFSEVELHNMKLVPVVNNRLFDMSAFMAGPGNAKKVVENGALLSWKLGCSLNQNSVPDIRGVETPAREGAMSAQLGYPVVGWHIANKKPTLPKRLRRQIHATPTPVTAIGPPTTAIQEPPSRIVPTPTSPAIAPPTETMAPPVRDPVPGKPTVTIRTRGAIIQTPTLGPIQPTRVSEAGTTVPGQIRPTLTIPGYVEPTAVITPPTTTTKKPRVSTPKPATPSTDSSTTTTRRPTKKPRTPRPVPRVTTKAPITRLETASPPTRIRTTTSGVPRGGEPNQRPELKNHIDRVDAWVGTYFEVKIPSDTFYDNEDTTTDKLKLTLKLREQQLVGEKSWVQFNSNSQLMYGLPDSSHVGKHEYFMHATDKGGLSAVDAFEIHVHKRPQGDKAPARFKARLAGDPAPVVNDIHKKIALVKKLAFAFGDRNCSSITLQNITRGSIVVEWTNNTLPLEPCPKEQIIGLSRRIADENGKPRPAFSNALEPDFKALSIAVTGSGSCRHLQFIPVAPPSPGSSAAPATEVPDRDPEKSSEDDVYLHTVIPAVVVAAILLIAGIIAMICYRKKRKGKLTLEDQATFIKKGVPIIFADELDDSKPPPSSSMPLILQEEKAPLPPPEYPNQSMPETTPLNQDTVGEYTPLRDEDPNAPPYQPPPPFTAPMEGKGSRPKNMTPYRSPPPYVPP
# B2: dystroglycan (mDag1): AAV 4X mutant DG (protein)
# parent chain: MSVDNWLLHPLWGQTFLLLLSVAVAQAHWPSEPSEAVRDWKNQLEASMHSVLSDFQEAVPTVVGIPDGTAVVGRSFRVSIPTDLIASSGEIIKVSAAGKEALPSWLHWDPHSHILEGLPLDTDKGVHYISVSAARLGANGSHVPQTSSVFSIEVYPEDHNEPQSVRAASSDPGEVVPSACAADEPVTVLTVILDADLTKMTPKQRIDLLNRMQSFSEVELHNMKLVPVVNNRLFDMSAFMAGPGNAKKVVENGALLSWKLGCSLNQNSVPDIRGVETPAREGAMSAQLGYPVVGWHIANKKPTLPKRLRRQIHATPTPVTAIGPPTTAIQEPPSRIVPTPTSPAIAPPTETMAPPVRDPVPGKPTVTIRTRGAIIQTPTLGPIQPTRVSEAGTTVPGQIRPTLTIPGYVEPTAVITPPTTTTKKPRVSTPKPATPSTDSSTTTTRRPTKKPRTPRPVPRVTTKAPITRLETASPPTRIRTTTSGVPRGGEPNQRPELKNHIDRVDAWVGTYFEVKIPSDTFYDNEDTTTDKLKLTLKLREQQLVGEKSWVQFNSNSQLMYGLPDSSHVGKHEYFMHATDKGGLSAVDAFEIHVHKRPQGDKAPARFKARLAGDPAPVVNDIHKKIALVKKLAFAFGDRNCSSITLQNITRGSIVVEWTNNTLPLEPCPKEQIIGLSRRIADENGKPRPAFSNALEPDFKALSIAVTGSGSCRHLQFIPVAPPSPGSSAAPATEVPDRDPEKSSEDDVYLHTVIPAVVVAAILLIAGIIAMICYRKKRKGKLTLEDQATFIKKGVPIIFADELDDSKPPPSSSMPLILQEEKAPLPPPEYPNQSMPETTPLNQDTVGEYTPLRDEDPNAPPYQPPPPFTAPMEGKGSRPKNMTPYRSPPPYVPP
# B3: dystroglycan (mDag1): AAV T315A/T317A DAG1 (protein)
# parent chain: MSVDNWLLHPLWGQTFLLLLSVAVAQAHWPSEPSEAVRDWKNQLEASMHSVLSDFQEAVPTVVGIPDGTAVVGRSFRVSIPTDLIASSGEIIKVSAAGKEALPSWLHWDPHSHILEGLPLDTDKGVHYISVSAARLGANGSHVPQTSSVFSIEVYPEDHNEPQSVRAASSDPGEVVPSACAADEPVTVLTVILDADLTKMTPKQRIDLLNRMQSFSEVELHNMKLVPVVNNRLFDMSAFMAGPGNAKKVVENGALLSWKLGCSLNQNSVPDIRGVETPAREGAMSAQLGYPVVGWHIANKKPTLPKRLRRQIHATPTPVTAIGPPTTAIQEPPSRIVPTPTSPAIAPPTETMAPPVRDPVPGKPTVTIRTRGAIIQTPTLGPIQPTRVSEAGTTVPGQIRPTLTIPGYVEPTAVITPPTTTTKKPRVSTPKPATPSTDSSTTTTRRPTKKPRTPRPVPRVTTKAPITRLETASPPTRIRTTTSGVPRGGEPNQRPELKNHIDRVDAWVGTYFEVKIPSDTFYDNEDTTTDKLKLTLKLREQQLVGEKSWVQFNSNSQLMYGLPDSSHVGKHEYFMHATDKGGLSAVDAFEIHVHKRPQGDKAPARFKARLAGDPAPVVNDIHKKIALVKKLAFAFGDRNCSSITLQNITRGSIVVEWTNNTLPLEPCPKEQIIGLSRRIADENGKPRPAFSNALEPDFKALSIAVTGSGSCRHLQFIPVAPPSPGSSAAPATEVPDRDPEKSSEDDVYLHTVIPAVVVAAILLIAGIIAMICYRKKRKGKLTLEDQATFIKKGVPIIFADELDDSKPPPSSSMPLILQEEKAPLPPPEYPNQSMPETTPLNQDTVGEYTPLRDEDPNAPPYQPPPPFTAPMEGKGSRPKNMTPYRSPPPYVPP
# B4: dystroglycan (mDag1): T377A/T379A (protein)
# parent chain: MSVDNWLLHPLWGQTFLLLLSVAVAQAHWPSEPSEAVRDWKNQLEASMHSVLSDFQEAVPTVVGIPDGTAVVGRSFRVSIPTDLIASSGEIIKVSAAGKEALPSWLHWDPHSHILEGLPLDTDKGVHYISVSAARLGANGSHVPQTSSVFSIEVYPEDHNEPQSVRAASSDPGEVVPSACAADEPVTVLTVILDADLTKMTPKQRIDLLNRMQSFSEVELHNMKLVPVVNNRLFDMSAFMAGPGNAKKVVENGALLSWKLGCSLNQNSVPDIRGVETPAREGAMSAQLGYPVVGWHIANKKPTLPKRLRRQIHATPTPVTAIGPPTTAIQEPPSRIVPTPTSPAIAPPTETMAPPVRDPVPGKPTVTIRTRGAIIQTPTLGPIQPTRVSEAGTTVPGQIRPTLTIPGYVEPTAVITPPTTTTKKPRVSTPKPATPSTDSSTTTTRRPTKKPRTPRPVPRVTTKAPITRLETASPPTRIRTTTSGVPRGGEPNQRPELKNHIDRVDAWVGTYFEVKIPSDTFYDNEDTTTDKLKLTLKLREQQLVGEKSWVQFNSNSQLMYGLPDSSHVGKHEYFMHATDKGGLSAVDAFEIHVHKRPQGDKAPARFKARLAGDPAPVVNDIHKKIALVKKLAFAFGDRNCSSITLQNITRGSIVVEWTNNTLPLEPCPKEQIIGLSRRIADENGKPRPAFSNALEPDFKALSIAVTGSGSCRHLQFIPVAPPSPGSSAAPATEVPDRDPEKSSEDDVYLHTVIPAVVVAAILLIAGIIAMICYRKKRKGKLTLEDQATFIKKGVPIIFADELDDSKPPPSSSMPLILQEEKAPLPPPEYPNQSMPETTPLNQDTVGEYTPLRDEDPNAPPYQPPPPFTAPMEGKGSRPKNMTPYRSPPPYVPP
# B5: dystroglycan (mDag1): 4X mut. (protein)
# parent chain: MSVDNWLLHPLWGQTFLLLLSVAVAQAHWPSEPSEAVRDWKNQLEASMHSVLSDFQEAVPTVVGIPDGTAVVGRSFRVSIPTDLIASSGEIIKVSAAGKEALPSWLHWDPHSHILEGLPLDTDKGVHYISVSAARLGANGSHVPQTSSVFSIEVYPEDHNEPQSVRAASSDPGEVVPSACAADEPVTVLTVILDADLTKMTPKQRIDLLNRMQSFSEVELHNMKLVPVVNNRLFDMSAFMAGPGNAKKVVENGALLSWKLGCSLNQNSVPDIRGVETPAREGAMSAQLGYPVVGWHIANKKPTLPKRLRRQIHATPTPVTAIGPPTTAIQEPPSRIVPTPTSPAIAPPTETMAPPVRDPVPGKPTVTIRTRGAIIQTPTLGPIQPTRVSEAGTTVPGQIRPTLTIPGYVEPTAVITPPTTTTKKPRVSTPKPATPSTDSSTTTTRRPTKKPRTPRPVPRVTTKAPITRLETASPPTRIRTTTSGVPRGGEPNQRPELKNHIDRVDAWVGTYFEVKIPSDTFYDNEDTTTDKLKLTLKLREQQLVGEKSWVQFNSNSQLMYGLPDSSHVGKHEYFMHATDKGGLSAVDAFEIHVHKRPQGDKAPARFKARLAGDPAPVVNDIHKKIALVKKLAFAFGDRNCSSITLQNITRGSIVVEWTNNTLPLEPCPKEQIIGLSRRIADENGKPRPAFSNALEPDFKALSIAVTGSGSCRHLQFIPVAPPSPGSSAAPATEVPDRDPEKSSEDDVYLHTVIPAVVVAAILLIAGIIAMICYRKKRKGKLTLEDQATFIKKGVPIIFADELDDSKPPPSSSMPLILQEEKAPLPPPEYPNQSMPETTPLNQDTVGEYTPLRDEDPNAPPYQPPPPFTAPMEGKGSRPKNMTPYRSPPPYVPP
# B6: dystroglycan (mDag1): 4X mut. (floxed WT allele removed by Pax7-Cre or AAV-CMV-Cre) (protein)
# parent chain: MSVDNWLLHPLWGQTFLLLLSVAVAQAHWPSEPSEAVRDWKNQLEASMHSVLSDFQEAVPTVVGIPDGTAVVGRSFRVSIPTDLIASSGEIIKVSAAGKEALPSWLHWDPHSHILEGLPLDTDKGVHYISVSAARLGANGSHVPQTSSVFSIEVYPEDHNEPQSVRAASSDPGEVVPSACAADEPVTVLTVILDADLTKMTPKQRIDLLNRMQSFSEVELHNMKLVPVVNNRLFDMSAFMAGPGNAKKVVENGALLSWKLGCSLNQNSVPDIRGVETPAREGAMSAQLGYPVVGWHIANKKPTLPKRLRRQIHATPTPVTAIGPPTTAIQEPPSRIVPTPTSPAIAPPTETMAPPVRDPVPGKPTVTIRTRGAIIQTPTLGPIQPTRVSEAGTTVPGQIRPTLTIPGYVEPTAVITPPTTTTKKPRVSTPKPATPSTDSSTTTTRRPTKKPRTPRPVPRVTTKAPITRLETASPPTRIRTTTSGVPRGGEPNQRPELKNHIDRVDAWVGTYFEVKIPSDTFYDNEDTTTDKLKLTLKLREQQLVGEKSWVQFNSNSQLMYGLPDSSHVGKHEYFMHATDKGGLSAVDAFEIHVHKRPQGDKAPARFKARLAGDPAPVVNDIHKKIALVKKLAFAFGDRNCSSITLQNITRGSIVVEWTNNTLPLEPCPKEQIIGLSRRIADENGKPRPAFSNALEPDFKALSIAVTGSGSCRHLQFIPVAPPSPGSSAAPATEVPDRDPEKSSEDDVYLHTVIPAVVVAAILLIAGIIAMICYRKKRKGKLTLEDQATFIKKGVPIIFADELDDSKPPPSSSMPLILQEEKAPLPPPEYPNQSMPETTPLNQDTVGEYTPLRDEDPNAPPYQPPPPFTAPMEGKGSRPKNMTPYRSPPPYVPP
# What was measured:
# [1] = EDL CSA from mass and fibre length; details: glycan lost; control: WT mice
# [2] = EDL eccentric contraction protocol; details: glycan lost; control: WT mice
# [3] = H&E and immunofluorescence of skeletal muscle; details: glycan lost; control: WT mice
# [4] = homozygous birth rate from heterozygous crosses; details: glycan lost; control: expected Mendelian ratio
# [5] = EDL isometric tetanic and specific force in vitro; details: glycan lost; control: WT mice
# [6] = forelimb grip strength, AAV rescue of DAG1 KO; details: glycan lost; control: AAV WT DAG1
Protein,other: muscle cross-sectional area [1],other: susceptibility to contraction-induced injury [2],other: skeletal muscle histopathology [3],"other: embryonic viability, other: homozygous birth rate [4]",other: muscle contractile force [5],other: rescue of grip strength [6]
B1,changes,no change,no change,10%,no change,
B2,,,,,,abolishes
B3,,,,,,no change
B4,no change,no change,no change,22%,no change,
B5,,,,abolishes,,
B6,,,increases,,,
